Experimental data as given in patent US20220089698A1 (published 2022).

What was measured:
HIV gp120 Bal = HIV gp120 Bal (HIV); assay: single-point ELISA; further: test concentration or dose not given here
HIV gp120 CAAN = HIV gp120 CAAN (HIV); assay: single-point ELISA; further: test concentration or dose not given here

Binder	ELISA (A450) (HIV gp120 Bal)	ELISA (A450) (HIV gp120 CAAN)
1.15.1-1 (antibody, human IgG1, kappa) heavy: QVQLLQSGAAVTKPGASVRVSCEASGYNIRDYFIHWWRQAPGQGLQWVGWINPKWGQPNNPRQFQGRVSLTRHASWDFDTFSFYMDLKALRSDDTAVYFCARQRSDYWDFDVWGSGTQVTVSSASTKGPSVFPLAPSSKSTSGGTAALGCLVKDYFPEPVTVSWNSGALTSGVHTFPAVLQSSGLYSLSSVVTVPSSSLGTQTYICNVNHKPSNTKVDKKVEPKSCDKTHTCPPCPAPELLAGPDVFLFPPKPKDTLMISRTPEVTCVVVDVSHEDPEVKFNWYVDGVEVHNAKTKPREEQYNSTYRVVSVLTVLHQDWLNGKEYKCKVSNKALPLPEEKTISKAKGQPREPQVYTLPPSREEMTKNQVSLTCLVKGFYPSDIAVEWESNGQPENNYKTTPPVLDSDGSFFLYSKLTVDKSRWQQGNVFSCSVLHEALHSHYTQKSLSLSPGK light: DIQMTQSPSSLSASVGDTVTITCQANGYLNWYQQRRGKAPKLLIYDGSKLERGVPSRFSGRRWGQEYNLTINNLQPEDIATYFCQVYEFVVPGTRLDLKRTVAAPSVFIFPPSDEQLKSGTASVVCLLNNFYPREAKVQWKVDNALQSGNSQESVTEQDSKDSTYSLSSTLTLSKADYEKHKVYACEVTHQGLSSPVTKSFNRGEC	0.87 A450	1.38 A450
1.20.1-1 (antibody, human IgG1, kappa) heavy: QVQLLQSGAAVTKPGASVRVSCEASGYNIRDYFIHWWRQAPGQGLQWVGWINPKTGQPNNPRQFQGRVTMTRHASWDFDTFSFYMDLKALRSDDTAVYFCARQRSDYWDFDVWGSGTQVTVSSASTKGPSVFPLAPSSKSTSGGTAALGCLVKDYFPEPVTVSWNSGALTSGVHTFPAVLQSSGLYSLSSVVTVPSSSLGTQTYICNVNHKPSNTKVDKKVEPKSCDKTHTCPPCPAPELLAGPDVFLFPPKPKDTLMISRTPEVTCVVVDVSHEDPEVKFNWYVDGVEVHNAKTKPREEQYNSTYRVVSVLTVLHQDWLNGKEYKCKVSNKALPLPEEKTISKAKGQPREPQVYTLPPSREEMTKNQVSLTCLVKGFYPSDIAVEWESNGQPENNYKTTPPVLDSDGSFFLYSKLTVDKSRWQQGNVFSCSVLHEALHSHYTQKSLSLSPGK light: DIQMTQSPSSLSASVGDTVTITCQANGYLNWYQQRRGKAPKLLIYDGSKLERGVPSRFSGRRWGQEYNLTINNLQPEDIATYFCQVYEFVVPGTRLDLKRTVAAPSVFIFPPSDEQLKSGTASVVCLLNNFYPREAKVQWKVDNALQSGNSQESVTEQDSKDSTYSLSSTLTLSKADYEKHKVYACEVTHQGLSSPVTKSFNRGEC	0.89 A450	0.8 A450
1.16.1-1 (antibody, human IgG1, kappa) heavy: QVQLLQSGAAVTKPGASVRVSCEASGYNIRDYFIHWWRQAPGQGLQWVGWINPKGGQPNNPRQFQGRVSLTRHASWDFDTFSFYMDLKALRSDDTAVYFCARQRSDYWDFDVWGSGTQVTVSSASTKGPSVFPLAPSSKSTSGGTAALGCLVKDYFPEPVTVSWNSGALTSGVHTFPAVLQSSGLYSLSSVVTVPSSSLGTQTYICNVNHKPSNTKVDKKVEPKSCDKTHTCPPCPAPELLAGPDVFLFPPKPKDTLMISRTPEVTCVVVDVSHEDPEVKFNWYVDGVEVHNAKTKPREEQYNSTYRVVSVLTVLHQDWLNGKEYKCKVSNKALPLPEEKTISKAKGQPREPQVYTLPPSREEMTKNQVSLTCLVKGFYPSDIAVEWESNGQPENNYKTTPPVLDSDGSFFLYSKLTVDKSRWQQGNVFSCSVLHEALHSHYTQKSLSLSPGK light: DIQMTQSPSSLSASVGDTVTITCQANGYLNWYQQRRGKAPKLLIYDGSKLERGVPSRFSGRRWGQEYNLTINNLQPEDIATYFCQVYEFVVPGTRLDLKRTVAAPSVFIFPPSDEQLKSGTASVVCLLNNFYPREAKVQWKVDNALQSGNSQESVTEQDSKDSTYSLSSTLTLSKADYEKHKVYACEVTHQGLSSPVTKSFNRGEC	0.92 A450	0.87 A450
1.19.1-1 (antibody, human IgG1, kappa) heavy: QVQLLQSGAAVTKPGASVRVSCEASGYNIRDYFIHWWRQAPGQGLQWVGWINPKTGQPNNPRQFQGRVTLTRHASWDFDTFSFYMDLKALRSDDTAVYFCARQRSDYWDFDVWGSGTQVTVSSASTKGPSVFPLAPSSKSTSGGTAALGCLVKDYFPEPVTVSWNSGALTSGVHTFPAVLQSSGLYSLSSVVTVPSSSLGTQTYICNVNHKPSNTKVDKKVEPKSCDKTHTCPPCPAPELLAGPDVFLFPPKPKDTLMISRTPEVTCVVVDVSHEDPEVKFNWYVDGVEVHNAKTKPREEQYNSTYRVVSVLTVLHQDWLNGKEYKCKVSNKALPLPEEKTISKAKGQPREPQVYTLPPSREEMTKNQVSLTCLVKGFYPSDIAVEWESNGQPENNYKTTPPVLDSDGSFFLYSKLTVDKSRWQQGNVFSCSVLHEALHSHYTQKSLSLSPGK light: DIQMTQSPSSLSASVGDTVTITCQANGYLNWYQQRRGKAPKLLIYDGSKLERGVPSRFSGRRWGQEYNLTINNLQPEDIATYFCQVYEFVVPGTRLDLKRTVAAPSVFIFPPSDEQLKSGTASVVCLLNNFYPREAKVQWKVDNALQSGNSQESVTEQDSKDSTYSLSSTLTLSKADYEKHKVYACEVTHQGLSSPVTKSFNRGEC	0.85 A450	0.93 A450
1.17.1-1 (antibody, human IgG1, kappa) heavy: QVQLLQSGAAVTKPGASVRVSCEASGYNIRDYFIHWWRQAPGQGLQWVGWINPKAGQPNNPRQFQGRVSLTRHASWDFDTFSFYMDLKALRSDDTAVYFCARQRSDYWDFDVWGSGTQVTVSSASTKGPSVFPLAPSSKSTSGGTAALGCLVKDYFPEPVTVSWNSGALTSGVHTFPAVLQSSGLYSLSSVVTVPSSSLGTQTYICNVNHKPSNTKVDKKVEPKSCDKTHTCPPCPAPELLAGPDVFLFPPKPKDTLMISRTPEVTCVVVDVSHEDPEVKFNWYVDGVEVHNAKTKPREEQYNSTYRVVSVLTVLHQDWLNGKEYKCKVSNKALPLPEEKTISKAKGQPREPQVYTLPPSREEMTKNQVSLTCLVKGFYPSDIAVEWESNGQPENNYKTTPPVLDSDGSFFLYSKLTVDKSRWQQGNVFSCSVLHEALHSHYTQKSLSLSPGK light: DIQMTQSPSSLSASVGDTVTITCQANGYLNWYQQRRGKAPKLLIYDGSKLERGVPSRFSGRRWGQEYNLTINNLQPEDIATYFCQVYEFVVPGTRLDLKRTVAAPSVFIFPPSDEQLKSGTASVVCLLNNFYPREAKVQWKVDNALQSGNSQESVTEQDSKDSTYSLSSTLTLSKADYEKHKVYACEVTHQGLSSPVTKSFNRGEC	0.84 A450	0.7 A450
1.18.1-1 (antibody, human IgG1, kappa) heavy: QVQLLQSGAAVTKPGASVRVSCEASGYNIRDYFIHWWRQAPGQGLQWVGWINPKHGQPNNPRQFQGRVSLTRHASWDFDTFSFYMDLKALRSDDTAVYFCARQRSDYWDFDVWGSGTQVTVSSASTKGPSVFPLAPSSKSTSGGTAALGCLVKDYFPEPVTVSWNSGALTSGVHTFPAVLQSSGLYSLSSVVTVPSSSLGTQTYICNVNHKPSNTKVDKKVEPKSCDKTHTCPPCPAPELLAGPDVFLFPPKPKDTLMISRTPEVTCVVVDVSHEDPEVKFNWYVDGVEVHNAKTKPREEQYNSTYRVVSVLTVLHQDWLNGKEYKCKVSNKALPLPEEKTISKAKGQPREPQVYTLPPSREEMTKNQVSLTCLVKGFYPSDIAVEWESNGQPENNYKTTPPVLDSDGSFFLYSKLTVDKSRWQQGNVFSCSVLHEALHSHYTQKSLSLSPGK light: DIQMTQSPSSLSASVGDTVTITCQANGYLNWYQQRRGKAPKLLIYDGSKLERGVPSRFSGRRWGQEYNLTINNLQPEDIATYFCQVYEFVVPGTRLDLKRTVAAPSVFIFPPSDEQLKSGTASVVCLLNNFYPREAKVQWKVDNALQSGNSQESVTEQDSKDSTYSLSSTLTLSKADYEKHKVYACEVTHQGLSSPVTKSFNRGEC	0.97 A450	1.18 A450
